Measurements reported in PMC8989681, “Functional and structural deficiencies of Gemin5 variants associated with neurological disorders” (Life Science Alliance, 2022).

How the values were obtained:
[1] = molecular target: 80S ribosomes, P05388;P63244; test: sedimentation with native ribosomes (80S fraction), immunoblot quantification; details: chain shown with the change; HEK293 cells expressing Xpress-tagged G5845-1508 proteins; parent: est. 1.0; read off a plot
[2] = molecular target: the molecule itself; test: SEC-MALS; 250 ul of purified TPR-like domain at 1-3 mg/ml on Superdex 200 10/300; 20 mM Tris-HCl pH 6.8, 0.2 M NaCl, 5% glycerol, 1 mM DTT; 0.5 ml/min

Binder | other: G5845-1508 intensity 80S/S30 [1] | stoichiometry N [2]
Xpress-G5_(845-1508)-WT, Q8TEQ6 D1019E (protein) ARSLLPLSTSLDHRSKEELHQDCLVLATAKHSRELNEDVSADVEERFHLGLFTDRATLYRMIDIEGKGHLENGHPELFHQLMLWKGDLKGVLQTAAERGELTDNLVAMAPAAGYHVWLWAVEAFAKQLCFQDQYVKAASHLLSIHKVYEAVELLKSNHFYREAIAIAKARLRPEEPVLKDLYLSWGTVLERDGHYAVAAKCYLGATCAYDAAKVLAKKGDAASLRTAAELAAIVGEDELSASLALRCAQELLLANNWVGAQEALQLHESLQGQRLVFCLLELLSRHLEEKQLSEGKSSSSYHTWNTGTEGPFVERVTAVWKSIFSLDTPEQYQEAFQKLQNIKYPSATNNTPAKQLLLHICHDLTLAVLSQQMASWDEAVQALLRAVVRSYDSGSFTIMQEVYSAFLPDGCDHLRDKLGDHQSPATPAFKSLEAFFLYGRLYEFWWSLSRPCPNSSVWVRAGHRTLSVEPSQQLDTASTEETDPETSQPEPNRPSELDLRLTEEGERMLSTFKELFSEKHASLQNSQRTVAEVQETLAEMIRQHQKSQLCKSTANGPDKNEPEVEAEQPLCSSQSQCKEEKNEPLSLPELTKRLTEANQRMAKFPESIKAWPFPDVLECCLVLLLIRSHFPGCLAQEMQQQAQELLQKYGNTKTYRRHCQTFCM | 0.46 | 
Xpress-G5_(845-1508)-WT, Q8TEQ6 A951E (protein) ARSLLPLSTSLDHRSKEELHQDCLVLATAKHSRELNEDVSADVEERFHLGLFTDRATLYRMIDIEGKGHLENGHPELFHQLMLWKGDLKGVLQTAAERGELTDNLVEMAPAAGYHVWLWAVEAFAKQLCFQDQYVKAASHLLSIHKVYEAVELLKSNHFYREAIAIAKARLRPEDPVLKDLYLSWGTVLERDGHYAVAAKCYLGATCAYDAAKVLAKKGDAASLRTAAELAAIVGEDELSASLALRCAQELLLANNWVGAQEALQLHESLQGQRLVFCLLELLSRHLEEKQLSEGKSSSSYHTWNTGTEGPFVERVTAVWKSIFSLDTPEQYQEAFQKLQNIKYPSATNNTPAKQLLLHICHDLTLAVLSQQMASWDEAVQALLRAVVRSYDSGSFTIMQEVYSAFLPDGCDHLRDKLGDHQSPATPAFKSLEAFFLYGRLYEFWWSLSRPCPNSSVWVRAGHRTLSVEPSQQLDTASTEETDPETSQPEPNRPSELDLRLTEEGERMLSTFKELFSEKHASLQNSQRTVAEVQETLAEMIRQHQKSQLCKSTANGPDKNEPEVEAEQPLCSSQSQCKEEKNEPLSLPELTKRLTEANQRMAKFPESIKAWPFPDVLECCLVLLLIRSHFPGCLAQEMQQQAQELLQKYGNTKTYRRHCQTFCM | 0.48 | 
Xpress-G5_(845-1508)-WT, Q8TEQ6 R1016C (protein) ARSLLPLSTSLDHRSKEELHQDCLVLATAKHSRELNEDVSADVEERFHLGLFTDRATLYRMIDIEGKGHLENGHPELFHQLMLWKGDLKGVLQTAAERGELTDNLVAMAPAAGYHVWLWAVEAFAKQLCFQDQYVKAASHLLSIHKVYEAVELLKSNHFYREAIAIAKARLCPEDPVLKDLYLSWGTVLERDGHYAVAAKCYLGATCAYDAAKVLAKKGDAASLRTAAELAAIVGEDELSASLALRCAQELLLANNWVGAQEALQLHESLQGQRLVFCLLELLSRHLEEKQLSEGKSSSSYHTWNTGTEGPFVERVTAVWKSIFSLDTPEQYQEAFQKLQNIKYPSATNNTPAKQLLLHICHDLTLAVLSQQMASWDEAVQALLRAVVRSYDSGSFTIMQEVYSAFLPDGCDHLRDKLGDHQSPATPAFKSLEAFFLYGRLYEFWWSLSRPCPNSSVWVRAGHRTLSVEPSQQLDTASTEETDPETSQPEPNRPSELDLRLTEEGERMLSTFKELFSEKHASLQNSQRTVAEVQETLAEMIRQHQKSQLCKSTANGPDKNEPEVEAEQPLCSSQSQCKEEKNEPLSLPELTKRLTEANQRMAKFPESIKAWPFPDVLECCLVLLLIRSHFPGCLAQEMQQQAQELLQKYGNTKTYRRHCQTFCM | 0.51 | 
Gemin5 TPR-like dimerization domain R1016C (domain or fragment, human, UniProt Q8TEQ6 845-1097, looked up, Tag cut by PreScission protease; also called TPR-like R1016C; source: E. coli BL21-Rosetta (DE3) pLysS, purified (HisTrap, tag cleavage, SEC in 0.2 M NaCl); not shown: His6, N-terminal, cleaved; MBP, N-terminal, cleaved) ARSLLPLSTSLDHRSKEELHQDCLVLATAKHSRELNEDVSADVEERFHLGLFTDRATLYRMIDIEGKGHLENGHPELFHQLMLWKGDLKGVLQTAAERGELTDNLVAMAPAAGYHVWLWAVEAFAKQLCFQDQYVKAASHLLSIHKVYEAVELLKSNHFYREAIAIAKARLCPEDPVLKDLYLSWGTVLERDGHYAVAAKCYLGATCAYDAAKVLAKKGDAASLRTAAELAAIVGEDELSASLALRCAQELLL |  | 2
Gemin5 TPR-like dimerization domain D1019E (domain or fragment, human, UniProt Q8TEQ6 845-1097, looked up, Tag cut by PreScission protease; also called TPR-like D1019E; source: E. coli BL21-Rosetta (DE3) pLysS, purified (HisTrap, tag cleavage, SEC in 0.2 M NaCl); not shown: His6, N-terminal, cleaved; MBP, N-terminal, cleaved) ARSLLPLSTSLDHRSKEELHQDCLVLATAKHSRELNEDVSADVEERFHLGLFTDRATLYRMIDIEGKGHLENGHPELFHQLMLWKGDLKGVLQTAAERGELTDNLVAMAPAAGYHVWLWAVEAFAKQLCFQDQYVKAASHLLSIHKVYEAVELLKSNHFYREAIAIAKARLRPEEPVLKDLYLSWGTVLERDGHYAVAAKCYLGATCAYDAAKVLAKKGDAASLRTAAELAAIVGEDELSASLALRCAQELLL |  | 2
